From patent US11844843 (DYNE THERAPEUTICS, dated 2023) come the findings set out here.

Assay [1] addresses T1, recombinant human TfR1 (transferrin receptor protein 1) (human, UniProt P02786 89-760).
T1 construct: Recombinant protein in SPR and ELISA; they were assigned to this molecule; also called hTfR1; huTfR1
Nature of the assay: Biacore, d0; TfR1 species not stated. A general note: In SPR one partner is held on a chip, and binding of the other changes the refractive index at the surface.

Assay [2] has as its target T1, recombinant human TfR1 (transferrin …). Nature of the assay: Biacore, d25; TfR1 species not stated.
Assay [3] addresses T2, recombinant cynomolgus monkey (Macaca fascicularis) TfR1 (cynomolgus monkey (Macaca fascicularis), UniProt Q5RDH6 87-760 (Pongo abelii entry), limits assumed).
T2 construct: Recombinant protein; also called cTfR1; cyTfR1
T2 chain: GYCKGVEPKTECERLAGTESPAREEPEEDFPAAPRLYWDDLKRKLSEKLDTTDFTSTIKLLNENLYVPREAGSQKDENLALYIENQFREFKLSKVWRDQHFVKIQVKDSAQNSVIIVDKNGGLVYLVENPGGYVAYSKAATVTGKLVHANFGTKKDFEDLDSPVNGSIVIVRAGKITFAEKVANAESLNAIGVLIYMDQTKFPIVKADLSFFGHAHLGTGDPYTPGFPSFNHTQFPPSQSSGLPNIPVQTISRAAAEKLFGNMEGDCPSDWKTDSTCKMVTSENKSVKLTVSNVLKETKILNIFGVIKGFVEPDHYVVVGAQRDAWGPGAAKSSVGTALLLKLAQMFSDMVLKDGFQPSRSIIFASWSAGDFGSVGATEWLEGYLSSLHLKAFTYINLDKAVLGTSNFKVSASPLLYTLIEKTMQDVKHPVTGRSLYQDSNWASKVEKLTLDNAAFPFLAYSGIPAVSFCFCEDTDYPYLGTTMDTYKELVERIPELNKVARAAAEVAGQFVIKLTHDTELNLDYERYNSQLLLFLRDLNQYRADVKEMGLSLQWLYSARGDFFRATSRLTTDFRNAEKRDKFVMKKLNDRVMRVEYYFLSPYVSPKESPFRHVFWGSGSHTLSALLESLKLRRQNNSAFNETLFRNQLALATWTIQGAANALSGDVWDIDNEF
Put plainly: ELISA on cTfR1, unconjugated Fab, % normalized RFUs.

Assay [4] concerns the target T1, recombinant human TfR1 (transferrin …). Put plainly: Table 14, unconjugated Fab, d9 (after 9 days at 40 C); method not named.
Assay [5] has as its target T2, recombinant cynomolgus monkey (Macaca …). The description is as above.
For assay [6], the target named is T3, recombinant human TfR2 (transferrin receptor 2) (human, UniProt Q9UP52 105-801, limits assumed).
T3 construct: Recombinant protein in ELISA and SPR; also called hTfR2
T3 sequence (looked up): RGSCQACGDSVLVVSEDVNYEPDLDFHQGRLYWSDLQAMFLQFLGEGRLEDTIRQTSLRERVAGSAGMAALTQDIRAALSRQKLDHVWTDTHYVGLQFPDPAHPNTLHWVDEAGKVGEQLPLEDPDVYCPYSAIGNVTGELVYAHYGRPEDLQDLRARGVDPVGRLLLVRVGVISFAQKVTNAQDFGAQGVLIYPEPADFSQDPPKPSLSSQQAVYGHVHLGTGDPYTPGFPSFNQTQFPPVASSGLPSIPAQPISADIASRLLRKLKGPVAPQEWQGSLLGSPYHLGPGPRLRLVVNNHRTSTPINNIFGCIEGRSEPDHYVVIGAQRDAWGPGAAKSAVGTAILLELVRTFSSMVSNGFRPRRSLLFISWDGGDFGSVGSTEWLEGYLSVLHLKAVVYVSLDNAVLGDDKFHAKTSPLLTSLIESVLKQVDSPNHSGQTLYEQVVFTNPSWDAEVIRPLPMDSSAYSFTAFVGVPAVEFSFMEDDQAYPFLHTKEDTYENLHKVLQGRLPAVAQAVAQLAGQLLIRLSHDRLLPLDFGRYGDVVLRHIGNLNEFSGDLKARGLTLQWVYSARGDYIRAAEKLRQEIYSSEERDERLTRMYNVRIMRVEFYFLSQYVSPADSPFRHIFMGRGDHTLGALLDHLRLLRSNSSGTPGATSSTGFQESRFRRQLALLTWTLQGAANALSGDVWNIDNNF
Nature of the assay: ELISA on plate-coated recombinant human TfR2, anti-(H+L) IgG-A488 secondary. Here is the method: Recombinant human TfR2 protein was plated overnight at […] and was blocked for 1 hour with 1% bovine serum albumin (BSA) in PBS. Serial dilutions of the Fab or a positive control anti-TfR2 antibody were added in 0.5% BSA/TBST for 1 hour. After washing, anti-(H+L) IgG-A488 (Invitrogen #MA5-25932) fluorescent secondary antibody was added at a 1:500 dilution in 0.5% BSA/TBST and the plate was incubated for 1 hour. Relative fluorescence was measured using a Biotek Synergy plate reader at 495 nm excitation and 520 nm emission.
(In general: In an ELISA, binding on a coated surface is turned into a signal by an enzyme label.)

In assay [7] the target is T1, recombinant human TfR1 (transferrin …). Nature of the assay: ELISA, recombinant TfR1 coated, unconjugated Fab (row 'Fab binding affinity ELISA').
For assay [8], the target named is T2, recombinant cynomolgus monkey (Macaca …). The description is as above.
A further assay deals with T4, recombinant mouse TfR1 (mouse, UniProt Q62351 89-763).
T4 construct: Recombinant protein coated on ELISA plates
Nature of the assay: ELISA on plate-coated recombinant mouse TfR1, fluorescent anti-(H+L) IgG secondary. Here is the method:
Serial dilutions of the Fab were added to plates precoated with recombinant human, cynomolgus monkey, mouse, or rat TfR1. After a short incubation, binding of the Fab was quantified by addition of a fluorescently tagged anti-(H+L) IgG secondary antibody and measurement of fluorescence intensity at 495 nm excitation and 520 nm emission.

T1 sequence (P02786 89-760 limits assumed): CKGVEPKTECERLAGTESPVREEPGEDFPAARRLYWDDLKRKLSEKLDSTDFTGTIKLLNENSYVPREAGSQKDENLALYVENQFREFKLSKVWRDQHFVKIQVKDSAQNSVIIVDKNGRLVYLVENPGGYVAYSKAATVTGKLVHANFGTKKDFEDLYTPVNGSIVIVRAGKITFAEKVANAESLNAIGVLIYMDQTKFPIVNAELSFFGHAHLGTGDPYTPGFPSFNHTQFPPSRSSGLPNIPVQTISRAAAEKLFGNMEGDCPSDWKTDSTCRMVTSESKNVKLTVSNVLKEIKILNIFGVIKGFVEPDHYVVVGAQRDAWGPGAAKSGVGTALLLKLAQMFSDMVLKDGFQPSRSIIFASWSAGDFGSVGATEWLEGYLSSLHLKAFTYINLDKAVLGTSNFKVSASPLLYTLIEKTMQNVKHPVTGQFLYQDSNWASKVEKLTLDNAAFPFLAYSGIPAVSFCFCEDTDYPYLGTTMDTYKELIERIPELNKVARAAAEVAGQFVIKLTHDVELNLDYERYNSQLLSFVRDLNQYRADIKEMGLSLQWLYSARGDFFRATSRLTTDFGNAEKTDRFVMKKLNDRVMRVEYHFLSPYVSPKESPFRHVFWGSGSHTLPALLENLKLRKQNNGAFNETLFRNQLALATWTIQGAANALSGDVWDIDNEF
T4 sequence (Q62351 89-763 limits assumed): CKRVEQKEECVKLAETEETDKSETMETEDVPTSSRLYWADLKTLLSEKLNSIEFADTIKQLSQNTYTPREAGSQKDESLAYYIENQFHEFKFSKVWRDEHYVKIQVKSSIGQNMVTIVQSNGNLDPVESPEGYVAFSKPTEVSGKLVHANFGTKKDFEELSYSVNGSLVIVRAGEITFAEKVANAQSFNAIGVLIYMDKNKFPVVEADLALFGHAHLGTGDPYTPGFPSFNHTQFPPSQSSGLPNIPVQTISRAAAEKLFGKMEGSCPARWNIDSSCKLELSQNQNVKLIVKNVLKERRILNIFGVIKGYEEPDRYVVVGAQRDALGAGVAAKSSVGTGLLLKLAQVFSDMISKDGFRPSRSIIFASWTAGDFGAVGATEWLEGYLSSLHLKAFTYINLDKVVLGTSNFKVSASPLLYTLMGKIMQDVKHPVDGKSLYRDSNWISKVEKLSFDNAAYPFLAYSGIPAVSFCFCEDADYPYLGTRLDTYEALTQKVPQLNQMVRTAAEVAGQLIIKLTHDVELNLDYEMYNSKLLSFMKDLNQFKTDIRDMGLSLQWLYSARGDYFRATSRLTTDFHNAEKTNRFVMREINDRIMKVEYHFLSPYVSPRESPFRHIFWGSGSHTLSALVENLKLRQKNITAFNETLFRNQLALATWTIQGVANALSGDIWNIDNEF

B1: humanized anti-TfR Fab 3M12 VH4/Vκ3 (Fab, V domains shown)
VH: QVQLQESGPGLVKPSQTLSLTCTVTGYSITSGYYWNWIRQPPGKGLEWIGYITFDGANNYNPSLKNRVSISRDTSKNQFSLKLSSVTAEDTATYYCTRSSYDYDVLDYWGQGTTVTVSS
VL: DIQMTQSPSSLSASVGDRVTITCRASQDISNFLNWYQQKPGQPVKLLIYYTSRLHSGVPSRFSGSGSGTDFTLTISSLQPEDFATYYCQQGHTLPYTFGQGTKLEIKR
notes: also called 3M12 (VH4/Vk3); anti-TfR Fab 3M12 VH4/Vk3
As for B1, the Kd – broadly, the equilibrium constant for the complex coming apart – in assay [1] came to 0.341 nM; in [2], 0.486 nM. The EC50 (usually the concentration that produces a half-maximal response) is 9.9 nM in assay [3], 0.5 nM in [7] and 2.2 nM in assay [8]. The Binding affinity amounted to 0.28 nM in assay [4] and 16.4 nM in assay [5]. Besides, the binding result (in assay [6]; in the assay with recombinant mouse TfR1) was “no binding (tested: 500 nM)” each time.
